Target: Hck (UniProt P08631)
Experiment: phosphorylation enrichment, bacterial display (enrichment ratio); higher = better substrate or ligand; peptides without Tyr show the background
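For SH2 binding enrichment of the phosphorylated peptide, bacterial display in this document: peptide library displayed on the E. coli surface as eCPX fusions, selected cells deep-sequenced, score is each peptide's frequency after selection divided by its frequency in the input.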
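For phosphorylation enrichment, bacterial display in this document: 11-residue human phosphosite peptides and single-mutation variants displayed on the E. coli surface, counted by deep sequencing, each peptide's frequency after selection divided by its frequency in the unselected input library; frequency after pTyr selection over input frequency; kinase dosed for 20-30% of maximal phosphorylation in three min.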

Hck, sequence (P08631 whole entry, looked up): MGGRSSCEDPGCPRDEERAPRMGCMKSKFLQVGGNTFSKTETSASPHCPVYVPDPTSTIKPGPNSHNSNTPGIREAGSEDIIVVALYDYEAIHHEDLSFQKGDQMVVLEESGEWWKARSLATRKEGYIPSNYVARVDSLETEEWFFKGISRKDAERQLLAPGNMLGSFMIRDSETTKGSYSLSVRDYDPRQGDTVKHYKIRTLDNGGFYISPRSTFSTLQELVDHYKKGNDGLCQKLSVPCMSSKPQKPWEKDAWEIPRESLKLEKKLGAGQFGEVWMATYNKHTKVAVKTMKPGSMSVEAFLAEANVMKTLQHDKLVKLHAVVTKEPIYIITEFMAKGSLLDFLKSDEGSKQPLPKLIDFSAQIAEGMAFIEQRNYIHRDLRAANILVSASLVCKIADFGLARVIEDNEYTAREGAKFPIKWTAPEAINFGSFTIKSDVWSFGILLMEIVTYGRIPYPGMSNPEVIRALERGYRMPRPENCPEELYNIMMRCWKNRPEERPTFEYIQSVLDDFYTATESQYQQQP

| Sequence | phosphorylation enrichment |
| --- | --- |
| SSSGAYGGGFG [KRT19_Y61_YF] | 0.415 |
| DFSLKYPTDIP [APC_Y1183_A1184P_YF] | 0.46 |
| VLVSQYEKLDA [AMZ2_Y26_N30D] | 0.484 |
| DIDKIYIRTGI [PIK3CA_Y355_V356I] | 0.481 |
| AKIDGYIISYR | 0.604 |
| RLLRGYDQLAF [HLA-C_Y137_S140L_YF] | 0.554 |
| AKLVQYFMEHH [PTPN11_Y80_E76K_YF] | 0.441 |
| APRKVYDTRDD [ZFPL1_Y215] | 0.493 |
| FGGTVCHSPVS [PRC1_Y511_Y511C] | 0.505 |
| ENKGVYVLMSG [IVD_Y277] | 0.518 |
| KPIETYFSKNY [PLP1_Y50_L46P] | 0.45 |
| LGGAMYFLEAD [PKHD1_Y452_E457D_YF] | 0.581 |
| FGSVDCWEKFF [EEF1AKNMT_Y16_Y16C] | 0.426 |
| RQQQDYWLIDV [ANPEP_Y600] | 0.625 |
| LGRKLYSIAAP [ABHD12_Y345] | 0.73 |
| QWQQLYDTLNA [EIF3M_Y351] | 8.42 |
| RENGPYFTSFP [GDAP2_Y487_YF] | 0.49 |

| Sequence | phosphorylation enrichment |
| --- | --- |
| IIQRAYRRHLL [SCN1A_Y1926] | 0.576 |
| TNFSLYLRSLE [MTM1_Y71_R69S_YF] | 0.432 |
| PKKKQYTSIHH [APP_Y728_L723P] | 0.755 |
| LGPSDYFGEIA [PRKAR1A_Y323] | 0.602 |
| RTTKTYFPHFD [HBA1_Y43_P38R] | 0.569 |
| EAVSIYQFFGQ [CBLC_Y402_H405Y_YF] | 7.12 |
| YAGRDYSLDEF [MYOF_Y1705_G1701A] | 0.549 |
| AQESNYRLLRQ [SLC20A2_Y377_R382Q] | 0.478 |
| GLDGSYLPRDS [SH2D1A_Y29_L31P] | 0.55 |
| DFPMGYPSFLA [TBCK_Y153_I151M_YF] | 0.358 |
| FQGGTYSKACT [FGG_Y380_S384C_YF] | 0.473 |
| YPPDGYSRHYE [CTNND1_Y213] | 0.414 |
| QLFGPYLRIHA [BSCL2_Y213_A212P_YF] | 0.515 |
| LRYEVYGGENE [STOX1_Y610] | 0.828 |
| FVSIVCNDSGE [TSC2_Y1650_Y1650C] | 0.537 |
| PGIRMYRVQYN [LRFN1_Y454_Q455R] | 0.62 |

Target: c-Src SH2
Experiment: SH2 binding enrichment of the phosphorylated peptide, bacterial display (enrichment ratio); higher = better substrate or ligand; peptides without Tyr show the background

| Sequence | SH2 binding enrichment |
| --- | --- |
| SSSGAYGGGFG [KRT19_Y61_YF] | 0.427 |
| DFSLKYPTDIP [APC_Y1183_A1184P_YF] | 0.386 |
| VLVSQYEKLDA [AMZ2_Y26_N30D] | 7.26 |
| AKIDGYIISYR | 0.685 |
| RLLRGYDQLAF [HLA-C_Y137_S140L_YF] | 4.73 |
| ENKGVYVLMSG [IVD_Y277] | 3.06 |
| FGSVDCWEKFF [EEF1AKNMT_Y16_Y16C] | 0.83 |
| RQQQDYWLIDV [ANPEP_Y600] | 0.586 |
| LGRKLYSIAAP [ABHD12_Y345] | 0.593 |
| QWQQLYDTLNA [EIF3M_Y351] | 0.636 |
| RENGPYFTSFP [GDAP2_Y487_YF] | 0.714 |
| TNFSLYLRSLE [MTM1_Y71_R69S_YF] | 0.687 |
| PKKKQYTSIHH [APP_Y728_L723P] | 0.936 |
| RTTKTYFPHFD [HBA1_Y43_P38R] | 1.23 |
| EAVSIYQFFGQ [CBLC_Y402_H405Y_YF] | 0.654 |
| FQGGTYSKACT [FGG_Y380_S384C_YF] | 0.783 |
| YPPDGYSRHYE [CTNND1_Y213] | 1.21 |
| QLFGPYLRIHA [BSCL2_Y213_A212P_YF] | 1.17 |
| LRYEVYGGENE [STOX1_Y610] | 1.64 |
| PGIRMYRVQYN [LRFN1_Y454_Q455R] | 0.507 |

Further lines, results first:

| SH2 binding enrichment | Sequence |
| --- | --- |
| 0.623 | DIDKIYIRTGI [PIK3CA_Y355_V356I] |
| 0.97 | AKLVQYFMEHH [PTPN11_Y80_E76K_YF] |
| 0.372 | APRKVYDTRDD [ZFPL1_Y215] |
| 0.596 | FGGTVCHSPVS [PRC1_Y511_Y511C] |
| 0.599 | KPIETYFSKNY [PLP1_Y50_L46P] |
| 0.667 | LGGAMYFLEAD [PKHD1_Y452_E457D_YF] |
| 0.439 | IIQRAYRRHLL [SCN1A_Y1926] |
| 0.51 | LGPSDYFGEIA [PRKAR1A_Y323] |
| 0.909 | YAGRDYSLDEF [MYOF_Y1705_G1701A] |
| 0.405 | AQESNYRLLRQ [SLC20A2_Y377_R382Q] |
| 0.557 | GLDGSYLPRDS [SH2D1A_Y29_L31P] |
| 0.354 | DFPMGYPSFLA [TBCK_Y153_I151M_YF] |
| 0.57 | FVSIVCNDSGE [TSC2_Y1650_Y1650C] |

Target: Grb2 SH2 (UniProt P62993)
Experiment: as above

| Sequence | SH2 binding enrichment |
| --- | --- |
| SSSGAYGGGFG [KRT19_Y61_YF] | 0.724 |
| DFSLKYPTDIP [APC_Y1183_A1184P_YF] | 0.768 |
| VLVSQYEKLDA [AMZ2_Y26_N30D] | 0.896 |
| AKIDGYIISYR | 0.961 |
| RLLRGYDQLAF [HLA-C_Y137_S140L_YF] | 1.16 |
| ENKGVYVLMSG [IVD_Y277] | 0.987 |
| FGSVDCWEKFF [EEF1AKNMT_Y16_Y16C] | 0.944 |
| RQQQDYWLIDV [ANPEP_Y600] | 1.07 |
| LGRKLYSIAAP [ABHD12_Y345] | 0.788 |
| QWQQLYDTLNA [EIF3M_Y351] | 1.16 |
| RENGPYFTSFP [GDAP2_Y487_YF] | 0.878 |
| TNFSLYLRSLE [MTM1_Y71_R69S_YF] | 0.708 |
| PKKKQYTSIHH [APP_Y728_L723P] | 1.01 |
| RTTKTYFPHFD [HBA1_Y43_P38R] | 1.28 |
| EAVSIYQFFGQ [CBLC_Y402_H405Y_YF] | 0.921 |
| FQGGTYSKACT [FGG_Y380_S384C_YF] | 0.918 |
| YPPDGYSRHYE [CTNND1_Y213] | 0.911 |
| QLFGPYLRIHA [BSCL2_Y213_A212P_YF] | 1.33 |
| LRYEVYGGENE [STOX1_Y610] | 0.677 |
| PGIRMYRVQYN [LRFN1_Y454_Q455R] | 0.838 |

Other lines, results leading:

| SH2 binding enrichment | Sequence |
| --- | --- |
| 0.857 | DIDKIYIRTGI [PIK3CA_Y355_V356I] |
| 1.31 | AKLVQYFMEHH [PTPN11_Y80_E76K_YF] |
| 0.84 | APRKVYDTRDD [ZFPL1_Y215] |
| 0.756 | FGGTVCHSPVS [PRC1_Y511_Y511C] |
| 0.851 | KPIETYFSKNY [PLP1_Y50_L46P] |
| 0.768 | LGGAMYFLEAD [PKHD1_Y452_E457D_YF] |
| 0.769 | IIQRAYRRHLL [SCN1A_Y1926] |
| 0.878 | LGPSDYFGEIA [PRKAR1A_Y323] |
| 0.757 | YAGRDYSLDEF [MYOF_Y1705_G1701A] |
| 0.891 | AQESNYRLLRQ [SLC20A2_Y377_R382Q] |
| 0.879 | GLDGSYLPRDS [SH2D1A_Y29_L31P] |
| 0.672 | DFPMGYPSFLA [TBCK_Y153_I151M_YF] |
| 0.583 | FVSIVCNDSGE [TSC2_Y1650_Y1650C] |

Target: SHP2-C SH2
Experiment: as above

| Sequence | SH2 binding enrichment |
| --- | --- |
| SSSGAYGGGFG [KRT19_Y61_YF] | 0.517 |
| DFSLKYPTDIP [APC_Y1183_A1184P_YF] | 0.618 |
| VLVSQYEKLDA [AMZ2_Y26_N30D] | 0.602 |
| AKIDGYIISYR | 1.03 |
| RLLRGYDQLAF [HLA-C_Y137_S140L_YF] | 0.968 |
| ENKGVYVLMSG [IVD_Y277] | 0.892 |
| FGSVDCWEKFF [EEF1AKNMT_Y16_Y16C] | 1.03 |
| RQQQDYWLIDV [ANPEP_Y600] | 0.913 |
| LGRKLYSIAAP [ABHD12_Y345] | 0.583 |
| QWQQLYDTLNA [EIF3M_Y351] | 0.777 |
| RENGPYFTSFP [GDAP2_Y487_YF] | 0.773 |
| TNFSLYLRSLE [MTM1_Y71_R69S_YF] | 0.91 |
| PKKKQYTSIHH [APP_Y728_L723P] | 0.946 |
| RTTKTYFPHFD [HBA1_Y43_P38R] | 1.18 |
| EAVSIYQFFGQ [CBLC_Y402_H405Y_YF] | 0.881 |
| FQGGTYSKACT [FGG_Y380_S384C_YF] | 0.746 |
| YPPDGYSRHYE [CTNND1_Y213] | 1.04 |
| QLFGPYLRIHA [BSCL2_Y213_A212P_YF] | 1.54 |
| LRYEVYGGENE [STOX1_Y610] | 0.56 |
| PGIRMYRVQYN [LRFN1_Y454_Q455R] | 0.714 |

Other lines, results leading:

| SH2 binding enrichment | Sequence |
| --- | --- |
| 0.896 | DIDKIYIRTGI [PIK3CA_Y355_V356I] |
| 1.62 | AKLVQYFMEHH [PTPN11_Y80_E76K_YF] |
| 0.648 | APRKVYDTRDD [ZFPL1_Y215] |
| 0.508 | FGGTVCHSPVS [PRC1_Y511_Y511C] |
| 0.654 | KPIETYFSKNY [PLP1_Y50_L46P] |
| 0.698 | LGGAMYFLEAD [PKHD1_Y452_E457D_YF] |
| 0.381 | IIQRAYRRHLL [SCN1A_Y1926] |
| 0.599 | LGPSDYFGEIA [PRKAR1A_Y323] |
| 0.665 | YAGRDYSLDEF [MYOF_Y1705_G1701A] |
| 1.54 | AQESNYRLLRQ [SLC20A2_Y377_R382Q] |
| 0.483 | GLDGSYLPRDS [SH2D1A_Y29_L31P] |
| 0.523 | DFPMGYPSFLA [TBCK_Y153_I151M_YF] |
| 0.66 | FVSIVCNDSGE [TSC2_Y1650_Y1650C] |

— the supplement of paper PMC10065799, “High-throughput profiling of sequence recognition by tyrosine kinases and SH2 domains using bacterial peptide display” (eLife, 2023)
